# From US20240269235A1 (Gilead, published 2024)
# Substitutions are numbered along the chain they refer to.
# T1: trimeric murine IL-2 receptor (IL-2Rα, IL-2Rβ, and IL-2Rγ) on CTLL-2 cells (murine, UniProt P01590 22-268; P16297 27-539; P34902 23-369)
# T1 sequence (looked up) 1: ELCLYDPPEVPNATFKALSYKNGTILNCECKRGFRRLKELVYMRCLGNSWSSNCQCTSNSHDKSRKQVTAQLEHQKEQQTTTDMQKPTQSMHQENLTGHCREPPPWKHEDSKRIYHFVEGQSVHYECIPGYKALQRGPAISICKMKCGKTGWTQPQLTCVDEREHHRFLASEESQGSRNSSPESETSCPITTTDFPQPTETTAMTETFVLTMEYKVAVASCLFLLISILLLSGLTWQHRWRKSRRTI
# T1 sequence (looked up) 2: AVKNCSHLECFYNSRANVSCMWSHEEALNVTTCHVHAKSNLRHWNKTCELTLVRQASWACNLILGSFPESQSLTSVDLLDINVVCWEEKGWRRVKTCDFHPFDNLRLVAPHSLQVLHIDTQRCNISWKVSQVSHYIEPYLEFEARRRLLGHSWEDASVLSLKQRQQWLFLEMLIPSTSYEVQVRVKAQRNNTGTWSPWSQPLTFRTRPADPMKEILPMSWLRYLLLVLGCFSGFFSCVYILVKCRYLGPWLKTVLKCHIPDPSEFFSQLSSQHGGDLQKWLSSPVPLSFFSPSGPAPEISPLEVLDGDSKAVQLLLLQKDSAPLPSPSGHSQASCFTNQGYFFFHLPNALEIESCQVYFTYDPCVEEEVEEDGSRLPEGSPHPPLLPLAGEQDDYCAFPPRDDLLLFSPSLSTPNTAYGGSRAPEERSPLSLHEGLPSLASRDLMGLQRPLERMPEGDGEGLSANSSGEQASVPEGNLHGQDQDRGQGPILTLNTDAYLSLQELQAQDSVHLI
# T1 sequence (looked up) 3: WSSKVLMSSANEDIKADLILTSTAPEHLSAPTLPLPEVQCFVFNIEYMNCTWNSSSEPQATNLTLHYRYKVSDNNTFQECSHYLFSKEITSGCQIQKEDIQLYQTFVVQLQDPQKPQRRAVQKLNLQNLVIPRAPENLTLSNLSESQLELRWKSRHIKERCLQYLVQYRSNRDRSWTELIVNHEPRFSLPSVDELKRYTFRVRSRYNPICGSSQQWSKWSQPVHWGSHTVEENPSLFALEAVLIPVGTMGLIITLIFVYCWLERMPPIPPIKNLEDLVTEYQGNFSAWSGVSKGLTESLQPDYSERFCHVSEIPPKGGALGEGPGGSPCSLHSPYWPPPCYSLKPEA
# T2: IL-2Rαβγ on KHYG-1 cells (human NK leukemia cell line that expresses IL-2Rα, β, and γ) (human, UniProt P01589 22-272; P14784 27-551; P31785 23-369)
# T2 sequence (looked up) 1: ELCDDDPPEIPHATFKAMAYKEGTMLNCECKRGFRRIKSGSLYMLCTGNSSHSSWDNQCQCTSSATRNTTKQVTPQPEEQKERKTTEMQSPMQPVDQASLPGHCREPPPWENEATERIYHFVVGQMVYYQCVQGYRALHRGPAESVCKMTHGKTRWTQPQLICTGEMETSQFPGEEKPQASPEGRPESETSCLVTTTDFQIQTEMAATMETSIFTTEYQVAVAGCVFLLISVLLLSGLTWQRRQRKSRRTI
# T2 sequence (looked up) 2: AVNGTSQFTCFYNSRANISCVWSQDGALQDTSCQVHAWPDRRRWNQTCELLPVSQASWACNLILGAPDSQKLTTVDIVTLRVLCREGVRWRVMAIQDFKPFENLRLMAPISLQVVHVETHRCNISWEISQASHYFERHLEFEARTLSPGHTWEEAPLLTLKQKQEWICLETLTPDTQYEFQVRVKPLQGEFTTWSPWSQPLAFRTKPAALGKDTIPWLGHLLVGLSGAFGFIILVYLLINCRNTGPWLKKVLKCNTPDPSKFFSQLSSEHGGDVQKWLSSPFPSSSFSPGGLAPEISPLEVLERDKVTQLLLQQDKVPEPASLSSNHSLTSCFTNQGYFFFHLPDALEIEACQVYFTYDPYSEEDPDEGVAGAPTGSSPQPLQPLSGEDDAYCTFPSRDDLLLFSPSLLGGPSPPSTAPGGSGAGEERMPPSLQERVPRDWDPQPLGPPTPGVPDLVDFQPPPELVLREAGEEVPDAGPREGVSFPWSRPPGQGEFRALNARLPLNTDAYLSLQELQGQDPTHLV
# T2 sequence (looked up) 3: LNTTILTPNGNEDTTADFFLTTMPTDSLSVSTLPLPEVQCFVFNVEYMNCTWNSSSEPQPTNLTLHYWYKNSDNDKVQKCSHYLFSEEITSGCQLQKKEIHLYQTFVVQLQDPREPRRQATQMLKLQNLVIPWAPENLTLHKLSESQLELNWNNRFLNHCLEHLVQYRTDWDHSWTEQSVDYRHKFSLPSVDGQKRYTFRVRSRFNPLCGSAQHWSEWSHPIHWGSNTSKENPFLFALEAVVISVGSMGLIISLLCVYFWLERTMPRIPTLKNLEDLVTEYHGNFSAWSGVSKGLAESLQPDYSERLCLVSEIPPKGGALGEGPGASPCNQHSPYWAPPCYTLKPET
# T3: IL-2Rα (recombinant IL-2 receptor α, R&D Systems Cat #: 223-2A/CF), biotinylated (human, UniProt P01589 22-213, limits assumed, biotinylated using sulfo-NHS-LC-LC-Biotin)
# T3 construct: Bought reagent; also used here as the IL-2Rα partner of the in-silico analysis of PDB 2B5I (another construct); also called IL-2RA; CD25
# T3 sequence (looked up): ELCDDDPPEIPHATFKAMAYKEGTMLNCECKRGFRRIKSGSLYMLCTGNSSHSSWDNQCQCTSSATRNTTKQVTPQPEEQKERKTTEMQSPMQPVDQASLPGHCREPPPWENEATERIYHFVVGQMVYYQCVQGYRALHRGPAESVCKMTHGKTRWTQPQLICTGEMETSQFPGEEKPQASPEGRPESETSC
# B1: Fc-IL-2v heterodimer 96.46 (hIL-2v_Δ1-5_Y45G_E61A_C125S) (Fc fusion)
# chain 1: ESKYGPPCPPCPAPEAAGGPSVFLFPPKPKDTLMISRTPEVTCVVVDVSQEDPEVQFNWYVDGVEVHNAKTKPREEQFNSTYRVVSVLTVLHQDWLNGKEYKCKVSNKGLPSSIEKTISKAKGQPREPQVYTLPPSQEEMTKNQVSLWCLVKGFYPSDIAVEWESNGQPENNYKTTPPVLDSDGSFFLYSRLTVDKSRWQEGNVFSCSVMHEALHNHYTQKSLSLSLGGGGGSGGGGSGGGGSGGGGSSTKKTQLQLEHLLLDLQMILNGINNYKNPKLTRMLTFKFGMPKKATELKHLQCLEAELKPLEEVLNLAQSKNFHLRPRDLISNINVIVLELKGSETTFMCEYADETATIVEFLNRWITFSQSIISTLT
# chain 2: ESKYGPPCPPCPAPEAAGGPSVFLFPPKPKDTLMISRTPEVTCVVVDVSQEDPEVQFNWYVDGVEVHNAKTKPREEQFNSTYRVVSVLTVLHQDWLNGKEYKCKVSNKGLPSSIEKTISKAKGQPREPQVYTLPPSQEEMTKNQVSLSCAVKGFYPSDIAVEWESNGQPENNYKTTPPVLDSDGSFFLVSRLTVDKSRWQEGNVFSCSVMHEALHNRFTQKSLSLSLGK
# notes: hIgG4 knob-in-hole Fc heterodimer, one IL-2v on the knob chain
# B2: Fc-IL-2v heterodimer 98.46 (hIL-2v_Δ1-5_R38G_Y45G_C125S) (Fc fusion)
# chain 1: B1 chain 1 with R281G, A304E
# chain 2: B1 chain 2
# notes: as for B1
# B3: Fc-IL-2v heterodimer 113.46 (hIL-2v_Δ1-5_R38G_E62A_C125S) (Fc fusion)
# chain 1: B1 chain 1 with R281G, G288Y, A304E, E305A
# chain 2: B1 chain 2
# notes: as for B1
# B4: Fc-IL-2v heterodimer 107.46 (hIL-2v_Δ1-5_F42A_E62A_C125S) (Fc fusion)
# chain 1: B1 chain 1 with F285A, G288Y, A304E, E305A
# chain 2: B1 chain 2
# notes: as for B1
# B5: Fc-IL-2v heterodimer 105.46 (hIL-2v_Δ1-5_F42A_Y45A_L72G_C125S) (Fc fusion)
# chain 1: B1 chain 1 with F285A, G288A, A304E, L315G
# chain 2: B1 chain 2
# notes: as for B1
# B6: Fc-IL-2v heterodimer 108.46 (hIL-2v_Δ1-5_F42A_Y45G_E62A_C125S) (Fc fusion)
# chain 1: B1 chain 1 with F285A, A304E, E305A
# chain 2: B1 chain 2
# notes: as for B1
# B7: Fc-IL-2v heterodimer 114.46 (hIL-2v_Δ1-5_R38G_F42A_E62A_C125S) (Fc fusion)
# chain 1: B1 chain 1 with R281G, F285A, G288Y, A304E, E305A
# chain 2: B1 chain 2
# notes: as for B1
# B8: Fc-IL-2v heterodimer 99.46 (hIL-2v_Δ1-5_R38G_E61A_C125S) (Fc fusion)
# chain 1: B1 chain 1 with R281G, G288Y
# chain 2: B1 chain 2
# notes: as for B1
# B9: mouse surrogate Fc-IL-2v heterodimer 169.250 (IL2v_F56A_Y59G_E76A_C140A) (Fc fusion)
# chain 1: GPTIKPCPPCKCPAPNAAGGPSVFIFPPKIKDVLMISLSPIVTCVVVDVSEDDPDVQISWFVNNVEVHTAQTQTHREDYNSTLRVVSALPIQHQDWMSGKEFKCKVNNKDLGAPIERTISKPKGSVRAPQVYVLPPPEEEMTKKQVTLWCMVTDFMPEDIYVEWTNNGKTELNYKNTEPVLDSDGSYFMYSKLRVEKKNWVERNSYSCSVVHEGLHNHHTTKSFSRTPGGGGGSGGGGSGGGGSGGGGSQQQHLEQLLMDLQELLSRMENYRNLKLPRMLTAKFGLPKQATELKDLQCLEDALGPLRHVLDLTQSKSFQLEDAENFISNIRVTVVKLKGSDNTFECQFDDESATVVDFLRRWIAFAQSIISTSPQ
# chain 2: GPTIKPCPPCKCPAPNAAGGPSVFIFPPKIKDVLMISLSPIVTCVVVDVSEDDPDVQISWFVNNVEVHTAQTQTHREDYNSTLRVVSALPIQHQDWMSGKEFKCKVNNKDLGAPIERTISKPKGSVRAPQVYVLPPPEEEMTKKQVTLSCAVTDFMPEDIYVEWTNNGKTELNYKNTEPVLDSDGSYFMVSKLRVEKKNWVERNSYSCSVVHEGLHNHHTTKSFSRTPGK
# B10: mouse surrogate Fc-IL-2v heterodimer 170.250 (IL2v_R52G_E76A_C140A) (Fc fusion)
# chain 1: B9 chain 1 with R278G, A282F, G285Y
# chain 2: B9 chain 2
# Target: T1, trimeric murine IL-2 receptor (IL-2Rα, …)
# Assay: cell-based or functional assay
row,"STAT5 activation of CTLL-2 cells, EC50 [nM]",Binder
1,0.4,B1
2,0.2,B2
3,3.1,B3
4,25.5,B4
5,7.7,B5
6,41.4,B6
7,61.2,B7
8,0.03,B8

# Target: T1, trimeric murine IL-2 receptor (IL-2Rα, …)
# Assay: cell-based or functional assay
# Remark: another data set of the same source
row,"pSTAT5 EC50, STAT5 activation of CTLL-2 cells [nM]",Binder
1,51.4,B9
2,9.6,B10

# Target: T2, IL-2Rαβγ on KHYG-1 cells (human NK …)
# Assay: cell-based or functional assay
row,"Proliferation of KHYG-1 NK cells, EC50 [nM]",Binder
1,0.344,B3
2,0.235,B4
3,0.191,B6
4,0.336,B7

# Target: T3, IL-2Rα (recombinant IL-2 receptor α, …)
# Assay: SPR (Biacore), CM4 chip, biotinylated receptor on neutravidin
# Protocol: (§1) Fc-IL-2 variant binding data was collected on a Biacore platform using a CM4 chip. Neutravidin was immobilized using standard amine coupling methods and used to capture biotinylated receptors. The source, preparation and immobilization of biotinylated IL-2Rα and IL-2Rβγ heterodimer was as described in Example 4. Proleukin was used as a comparator. Fc-IL-2 variants and Proleukin were injected at various concentrations over these surfaces. Kinetic data obtained from these injections was used to extract kₒₙ and koff to calculate KD (KD=Koff/kₒₙ).
row,Kd [nM],Binder
1,56000,B1
2,59000,B2
3,> 60000,B4
4,> 60000,B5
5,> 60000,B7
6,39000,B8

# Target: T4, IL-2Rβγ heterodimer, custom biotinylated Fc fusion protein (human IL-2Rβ 27-240-Fc-FLAG / human IL-2Rγ … (human, site-specific biotinylation at the AviTag))
# T4 construct: Extracellular regions fused to IgG1 knob-in-hole Fc subunits with tags; also called IL-2 receptor βγ heterodimer; Fc-IL-2Rβγ
# Assay: as above
# Protocol: as §1
row,Kd [nM],Binder
1,0.064,B1
2,0.056,B2
3,0.072,B3
4,0.069,B4
5,0.063,B5
6,0.062,B6
7,0.076,B7
8,0.065,B8
